In PMC8861134 one finds percent dimer and percent in monomeric form data, which are given here for 2 substances.

In assay [1] the target is Glucose-6-phosphate dehydrogenase K403Q (human) (UniProt P11413). In words: SEC; analytical SEC, Superdex 75 10/300 GL, 0.4 ml/min; 500 nM G6PD incubated 30 min at 23 °C in 80 mM sodium phosphate pH 8.0, with or without 10 μM NADP+; percentages in monomer equivalents; step: monomers to dimer.
The target of assay [2] is Glucose-6-phosphate dehydrogenase E347A, tetramer-impaired synthetic mutant (human) (UniProt P11413). In words: native gel or EMSA; partial native PAGE (P-Native PAGE): 850 nM protein in 50 mM Tris pH 7.4, 150 mM NaCl, 23 °C, 30 min; sample buffer without SDS and BME, not boiled, run on SDS-PAGE, Western blot, quantified with Fiji; step: dimer to monomers.

On to “Glucose-6-phosphate dehydrogenase K403Q (from UniProt P11413 1-515) (enzyme)”, for which, in assay [1], the percent dimer came to 74%.
Consider “Glucose-6-phosphate dehydrogenase E347A, tetramer-impaired synthetic mutant (from UniProt P11413 1-515) (enzyme)”, for which, in assay [2], the percent in monomeric form is 80%.
